Results taken from PMC8118686, “Identification of a RAD52 Inhibitor Inducing Synthetic Lethality in BRCA2-Deficient Cancer Cells” (Frontiers in Pharmacology, 2021).

Biological target: the molecule itself
Test: cross-linking; called EMSA by the paper: 1 uM 6His-RAD52 in 25 mM HEPES pH 7.5, 1 mM DTT, 10 mM MgCl2, 150 mM NaCl, 0.1 mg/ml BSA, 37 °C; with or without 400 uM 50-nt ssDNA oligo and 100 uM C791-0064; 0.1% glutaraldehyde 3 min; 4-20% SDS-PAGE, Western blot with anti-Histag

B1: Human 6His-RAD52 protein (natural protein, UniProt P43351 1-418, looked up)
chain: MSGTEEAILGGRDSHPAAGGGSVLCFGQCQYTAEEYQAIQKALRQRLGPEYISSRMAGGGQKVCYIEGHRVINLANEMFGYNGWAHSITQQNVDFVDLNNGKFYVGVCAFVRVQLKDGSYHEDVGYGVSEGLKSKALSLEKARKEAVTDGLKRALRSFGNALGNCILDKDYLRSLNKLPRQLPLEVDLTKAKRQDLEPSVEEARYNSCRPNMALGHPQLQQVTSPSRPSHAVIPADQDCSSRSLSSSAVESEATHQRKLRQKQLQQQFRERMEKQQVRVSTPSAEKSEAAPPAPPVTHSTPVTVSEPLLEKDFLAGVTQELIKTLEDNSEKWAVTPDAGDGVVKPSSRADPAQTSDTLALNNQMVTQNRTPHSVCHQKPQAKSGSWDLQTYSADQRTTGNWESHRKSQDMKKRKYDPS
notes: RAD52, human; The size of the oligomer is not measured here; heptamer is only cited
binding result: binds
